The experiment addresses T1, BCMA (TNFRSF17) (human, UniProt Q02223 1-184, limits assumed).
T1 construct: Member of a commercial human plasma membrane protein array; the construct is not described
T1 sequence (looked up): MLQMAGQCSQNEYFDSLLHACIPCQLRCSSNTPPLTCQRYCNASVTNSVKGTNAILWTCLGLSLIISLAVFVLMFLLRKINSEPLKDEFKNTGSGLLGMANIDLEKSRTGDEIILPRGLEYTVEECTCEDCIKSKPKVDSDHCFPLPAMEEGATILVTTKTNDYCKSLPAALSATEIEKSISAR
The experiment can be described thus: commercial human plasma membrane protein array.

B1: anti-human BCMA single chain antibody variable fragment (scFv) (PI61) (scFv)
scFv: QVQLQESGGGVVQPGRSLRLSCAASGFTFSSYGMHWVRQAPGKGLEWVAVISYDGSNKYYADSVKGRFTISRDNSKNTLYLQMNSLRAEDTAVYYCGGSGYALHDDYYGLDVWGQGTLVTVSSGGGGSGGGGSGGGGSQSALTQPASVSGSPGQSITISCTGTSSDVGGYNYVSWYQQHPGKAPKLMIYDVSNRPSGVSNRFSGSKSGNTASLTISGLQAEDEADYYCSSYTSSSTLYVFGSGTKVTVL
notes: also called PI61 scFv
Turning to B1, the binding result is reported as “binds”.

The values above are taken from patent publication US20220364055A1 (Novartis, published 2022).
